Measured values published in patent US20050255553A1 (LUDWIG INSTITUTE FOR CANCER RESEARCH, published 2005).

Experiments:
HLA-B44 (HLA-B*4403) [1] = biological target: T1, HLA-B44 (HLA-B*4403) (human); assay: lysis of peptide-pulsed BAGM-EBV cells by TIL 2.4
T1 construct: whole, on cells; MHC class I molecule on BAGM-EBV cells or transfected COS-7 cells
Procedure: FIG. 4 depicts the lysis of BAGM-EBV cells pulsed with the MAGE.C2.B44 peptides. […] TIL2.4 was added at a ratio of 15:1. The chromium release was measured after 4 hours. The nonapeptide (-▪-) is the antigenic sequence recognized by the TIL.
To identify the antigenic peptide, several minigenes were generated by amplifying different fragments of the MAGE-C2 cDNA by PCR. The PCR products were cloned into plasmid vector pCDNA3.1/His by TOPO T/A cloning (MAGE-C2/HLA-A2 patent and Ma W et al., Int. J. Cancer: in press, incorporated herein by reference). COS-7 cells were transfected with vectors encoding HLA-B44 and vectors encoding the different minigenes described above. TIL 2.4 were added to the transfected cells and TNF production was measured (FIG. 3X). […] Candidate peptides bearing the binding motif for HLA-B44 were then synthesized and pulsed onto BAGM-EBV cells. These pulsed cells were combined with TIL2.4 and assayed for lysis. […] The nonapeptide and the decapeptide were then synthesized and assayed individually.

HLA-B44 (HLA-B*4403) [2] = biological target: T1, HLA-B44 (HLA-B*4403); assay: concluded from lysis of peptide-pulsed BAGM-EBV cells and TNF assays with HLA-B44 transfectants; no direct binding assay

binding result (HLA-B44 (HLA-B*4403) [1])	binding result (HLA-B44 (HLA-B*4403) [2])	Binder
binds	–	SESIKKKVLEF (Synthetic peptide) [MAGE-C2 11-mer peptide SESIKKKVLEF (SEQ ID NO: 106)]
–	binds	SESIKKKVL (Synthetic peptide; also called MAGE.C2 antigenic peptide) [MAGE-C2 nonapeptide SESIKKKVL (SEQ ID NO: 107)]
